The text below walks through data of PMC12000384, “Competition for the nascent leading strand shapes the requirements for PCNA loading in the replisome” (The EMBO Journal, 2025).

The target of the assay is T1, CMG (Cdc45-MCM-GINS) helicase (S. cerevisiae, UniProt Q08032 1-650; P29469 1-868; P24279 1-971; P30665 1-933; P29496 1-775; P53091 …).
T1 construct: Cdc45, S. cerevisiae; Mcm2, S. cerevisiae; Mcm3, S. cerevisiae; Mcm4, S. cerevisiae; Mcm5, S. cerevisiae; Mcm6, S. cerevisiae; Mcm7, S. cerevisiae; GINS subunit, S. cerevisiae; 11-subunit helicase; The two strains express the same chains; in yVA94 endogenous Ctf4-2xStrep was depleted on Strep-Tactin resin; also called Ctf4-depleted CMG; wild-type CMG; source: S. cerevisiae, overexpressed, …
Put plainly: cryo-EM structure; replisome reconstituted on ice on forked DNA with 0.5 mM AMP-PNP from 150 nM CMG (Ctf4-depleted), Pol ε^exo-, Ctf18-RFC, Tof1-Csm3, Ctf4 and Mrc1 in 25 mM HEPES-NaOH pH 7.6, 150 mM NaOAc, 15 mM Mg(OAc)2, 0.5 mM TCEP; 10-30% glycerol gradient with glutaraldehyde and BS3 cross-linking. Conditions: both partners purified.

B1: Tof1-Csm3 (complex, S. cerevisiae)
chain 1: MSADLQQGTTNAADFSLTVLRARIALLATAIGGPDYTSQIDPPPYKLGDDCLACLKDLKRWFKLVDDQQKRWDVAMAVAEYRILTDDLLPILIDWENKCSLAAKLAKNNPDHEEFRNKAYYDKIALNCLQLLVLMTWPLIVTEQSSSNQITLYGELKKHQLVYKKTILSMESGKVLRAAIRLALDVIKIDRLSRTPRDNMVLKLVLNFFRNVIAIEPGEFTINTKKSMPKKGITSIDTLPPNVSMDDISLNTVISSFHKNKVFGFLLTLTSSLSKEFDQDFINIPLLEIMFYFTKDVNQELLFPRQFETGTHSKVVNKNESSSANNIVTSAGFELSKLLQKEHQMRKNVIKHTSARHSRFGGLLSIQTPDKTRLTVSGSQALVDEKIALQKLDDSKKWNKRIIKKHQSVAAEGLPNSLLNSQTGKAIFFTESNGKHFKEFINNFIDSGFNILLHSVTNYFTTEQDRMVTLEQVEYLLFFAWFVKYQLLRSKIDNSADIKQVSEALKEVTFILVSSLLRSAYDLKNWTVTHAGMIAFNELLNLVSRTKAAQEEDSTDIEFIVSRLFSDERIQLLSNLPKIGSKYSLQFMKSCIELTHSVLKVLEQYSDDKTLVIEGKSRRQKKFNISEGDITKLIEEENVDRDEALDILTSSLRSIEVNFQKVQANYMTEPVIETYINFLERFRELEDDSIKKVFSFFHRVFVQAKEQALLFRFDLIILLREMLSPDGLDRMSRSRKYVSQFSDYFLARLKKRLKKSPAWFVGLLFPPLHNSEVGFYQRYGEYNVLNNESMYAAPASQFKPIPDEEALPPSILLDMKYGVLVSTLLDDGKTELLDQLLKHITHTLDIFKSWLTVNVNAGKETVNPPNEYFTLTGVLNNDPIFKDKDYRALLLLIGYSIPRKINEPCFLPGTVEVSDLTVSCELVKKYLSTPFETPNGLPSSSYLLRVRSEKDSFSHNEQDGWEGDDDYDYNDPYIVPDDQILSKSDAAYFKDLDNNASDKLKGTKFSKGIARSKKKDKRKRRKGEAKTNLPMFGDQDDERPQTVRERHGVFSKEFISDSEDDEDLMNPIFFENETYMRWLLDKNNGQLTEDRYIQFAKFAAERMNNGGVVTGDYTSLFGGSIPSIESIRATESSSFAPDKSLISLASHVASEMSIFDVNNNNNNQLSDDDVNSESRNSLGSSQPSNSQNMFQSEVYSRKESTKRSLEASAADESDEDEEAIRLFGKKSRVVLSQGDSDD
chain 2: MDQDFDSLLLGFNDSDSVQKDPTVPNGLDGSVVDPTIADPTAITARKRRPQVKLTAEKLLSDKGLPYVLKNAHKRIRISSKKNSYDNLSNIIQFYQLWAHELFPKAKFKDFMKICQTVGKTDPVLREYRVSLFRDEMGMSFDVGTRETGQDLERQSPMVEEHVTSAEERPIVADSFAQDKRNVNNVDYDNDEDDDIYHLSYRNRRGRVLDERGNNETVLNNVVPPKEDLDALLKTFRVQGPVGLEENEKKLLLGWLDAHRKMEKGSMTEEDVQLIQSLEEWEMNDIEGQHTHYDLLPGGDEFGVDQDELDAMKEMGF
notes: Tof1, S. cerevisiae; Csm3, S. cerevisiae; source: purified as in Yeeles et al, 2017
As for B1, the binding result is “binds”.

B2: Ctf4 (natural protein, S. cerevisiae, UniProt Q01454 1-927, looked up)
chain: MVSVIDKLVFDFGGKTLVSLAPDNNTLCVANKNGLTKILKTNNPEEEPETLDSSKLVSSIKCYSNSHFLMTTMQGDALRYNIDSSQEELLARFALPLRDCCVIHSGKMAVFGGDDLELILLELDDETHKKHAIKIDEQVSQISYNSQMNILAVSMINGKVQIFSLTSTIPNKVHELNDYIVANSYDDTHRDKILSNMMDDIDKDNDNDLSETADPDENNVADPEFCAANRICTRVAWHPKGLHFALPCADDTVKIFSIKGYSLQKTLSTNLSSTKAHFIDLQFDPLRGTYIAAVDLNNKLTVWNWETSEIHYTREFKRKITNIAWKIQADSKTLDLVLGTWSGSIAIVQNLAESVVSNIPDQSVAESSTKHGLFVDSESDLENLEGNDDINKSDKLFSDITQEANAEDVFTQTHDGPSGLSEKRKYNFEDEEDFIDDDDGAGYISGKKPHNEHSYSRVHKTHSFPISLANTGKFRYMPFSPAGTPFGFTDRRYLTMNEVGYVSTVKNSEQYSITVSFFDVGRFREYHFEDLFGYDLCFLNEKGTLFGQSKTGQIQYRPHDSIHSNWTKIIPLQAGERITSVAATPVRVIVGTSLGYFRSFNQFGVPFAVEKTSPIVALTAQNYRVFSVHYSQFHGLSYSLSELGTSSKRYYKRECPLPMSLPNINSDMKKDANLDYYNFNPMGIKSLFFSSYGDPCIFGSDNTLLLLSKWRSPEESKWLPILDSNMEIWKMSGGKETTDIHVWPLALAYDTLNCILVKGKHIWPEFPLPLPSEMEIRMPVFVKSKLLEENKAILNKKNEIGADTEAEEGEEDKEIQIPVSMAAEEEYLRSKVLSELLTDTLENDGEMYGNENEVLAALNGAYDKALLRLFASACSDQNVEKALSLAHELKQDRALTAAVKISERAELPSLVKKINNIREARYEQQLK
notes: Ctf4, S. cerevisiae; source: purified as in Yeeles et al, 2015
In the case of B2, the binding result is given as “binds”.
